According to the DeepSol protein solubility set:

Assay: soluble on expression in E. coli; label from the status in PepcDB or PDB records

| Sequence | soluble on expression in E. coli |
| --- | --- |
| MCRLLGFATAGSNTNLNGVLGMQNVRDFRNLSEIHNDGWGAALITVPDESPYRRDGGAPTPETGTAIYKNTIAARHDPIFDELANTPARGGLWHLRLASSNLPLILENQQPFYANGLSFIHNGDISDDQGRNIITNRAFPVDPSIVQSTGGRSDSAIFFAVILQYIGFGFALDEAVAQAVRELRKSYPKSSYNCMIQSQDQFIALCAAGREVTSKRIVEIYDQYGRGEQARDYRVLRYRALGGNDDQSKGVVVASSGFDQRAEDGWTRLENDQMIVASNRTGEFRVRSI | soluble |
| MAKVVIPNGAEGEEAVYREQVIREYSGNPFIEALPPIYAPEEVVEKLAVYPPYSEEERNLDAHYRIHLTQKLFHCFQPLPQHLDLESRISRVIRQGYLPRNPVSKEYVISLKDGYRAVQNCDINANQQFRSTACGFTIIGVSGMGKSVSINRVLSMYPQVIVHSRYKGQGFSFYQLVWLKLDTPFDGSVKGLCIDFFNKVDQLMGTDFYKKVANSRKSVDYMLTLMCQVVRNTGLGLLIIDEVQHLCGARGLGDERMLNFFVTLVNTAGVPIILIATPKAMSILQSEFRQARRGSGQGDMVWERLQYDENFEILLDSLWQYQWTRKESILTKSMRELLYEESQGIIDIICKIIVMAQTIAISTGKEQVDEKLIQQVAREHLQLVRPMILALKSGNIREIAKYSDICTAEIDYGKLVNQEKLPVEMRMRIRAIKEQKEKREKENKTSKMEQALYKLAELGIDVAKARKAVEAVFEAEGHNIDEGQLVIKAIQVLSGNTTEKKSKKVKTTPKSENDLRYIVEEGRNQGKSAYDALKDKGYIKGEKNDTLFKAV | not soluble |
| AALGPSSQNVTEYVVRVPKNTTKKYNIMAFNAADKVNFATWNQARLERDLSNKKIYQEEEMPESGAGSEFNRKLREEARRKKYGIVLKEFRPEDQPWLLRVNGKSGRKFKGIKKGGVTENTSYYIFTQCPDGAFEAFPVHNWYNFTPLARHRTLTAEEAEEEWERRNKVLN | soluble |
| MGSDKIHHHHHHMIDSMTHRKLSNTAQRPSPTRPRHGANATWRMLSVSALMLAMASTATWASDVKSQQTQAADIARNMANNTDTCYVEGVSDRLNCGFVTVPENPNKPDGKQIQVHYVVLPAVKNVNHEEALLAIAGGPGQSAIDNAAGFDAMLSKVRQQRDILLIDQRGTGRSNLLTCDEGAQSPLSFDDDNADTLAETQKCLAKIDADVTQYGSLNAIKDFEAVRQHLGYKKLHIYGISYGTRMAQLYMRLYPAHLATVTLDGIVPMQQSVLEIGASIDRGFDLLFKDCQETTACHAQFPELKAEFDQVAASLAKAPVMENVYDPVTGEKTMLTMTRGKFYGSIRMALYQANVRALVPHAIHQAAKHNFQPILGLYSLTTDNAGMAMGMHASVVCGEDMPRITPAMREQAQHSFMGKTMLEGLEATCEVWKVPAVDDSFSEPISSDIPTLLLSGEIDPATPPSWGELAMEKLTNAKHFVAPYATHGVAYQSCANNLIADLVRSGSVKDLDGECLKKDVRRSFYLNASSVEPLDATSTKTTDDNASTGAKE | not soluble |
| MGLIMAKLFQSWWIGKKYKIIVVGLDNAGKTTILYNYVTKDQVETKPTIGSNVEEVSYRNLDFVIWDIGGQESLRKSWSTYYVQTDVVIVVIDSSDTTRIPIMKEQLHNMLQHEDLARAHILVLANKQDLPGAMNPAEVSTQLGLQTLRGARKWQINGCCAVKGEGLPEALEWIANNL | not soluble |
| MSLIVSTIASHSSLQILLGAKKEGFKTRLYVSPKRRPFYSSLPIVDDLVVAEEMTSILNDDGIVVPHGSFVAYLGIEAIEKAKARFFGNRRFLKWETTFELQDKALEGAGIPRVEVVEPEDAKPDELYFVRIEGPRGGSGHFIVEGSELEERLSTLEEPYRVERFIPGVYLYVHFFYSPILERLELLGVDERVLIADGNARWPVKPLPYTIVGNRAIALRESLLPQLYDYGLAFVRTMRELEPPGVIGPFALHFAYDGSFKAIGIASRIDGGSNADHWYSELYWGERLSMGRRIARELRLAEEEDRLEEVVTEGHHHHHH | soluble |
| MTSEQNIQTFRDFLTQYNLVAEQCFNSCVNEFGSRTVSGKEESCANNCLDKFLKMTQRVSQRFQEHQLLNAQANGAAIKVENGGKINKIQ | not soluble |
| MARKTKEDTQATREGILDAAEACFHEHGVARTTLEMIGARAGYTRGAVYWHFKNKSEVLAAIVERVHLPFMQELERTSTDQRDTPVHDLRAVMIHSFIELSEDERLRKTMEIMLRSDASANTRVLTEMQQAGFRDALDRMERALRRARDLGQLREGADPKIAARMLHATVLGVLHGAMVEPELMDLKRDGMLALDMTLAAYVKDGVFVPGTVPEPLPEA | soluble |
| IKATYETFSSPNGHGEGRGYLVMPQKKTIKSPTVLVIHENRGLNPYIKDVARRLAKDGFIAFAPDALYPLGGYPGNDDEGRAMQKEMDRAKIEQDFIAAAKFIKQHEHGNGK | not soluble |
| MDDDFLPRRLKYSKHSLMLVALDYIPKELHKCLDMDRLEDVSAGGAYTTKQMLEEILNSDSRFRIYGNAEVFEKLLEKYMNFTSCREKFGFEKLQVLCVPIPMSPNLKGEKYLTKQDMFEHVQFYLMDVFHHTGFPFDNVVISLAFIKFRADRLNGCMEFVSNAREVLNSIESEIDQFLDELLDILNAEYFPKNYALPSKNPSFDTLYKQWKSFFPDWKPDELDSIQRFLEDRYSHLPPHKNAEKYGGILFVNHYLTNKYRELIDSRPEVFLPYNAMNRHKAPITVRVILFKDTKLVLRGELYKAMNQAYPDRVPIDYTDDLEEGIIYAMNFEDVFKEFGDLWYDIEFILTKVTRTNNATPILTLSGEFCIPGLQAFYNIFHVMNNVLRLFQKVKKEMWHFVCGYVKILEVRLKPFEDTPCFITNTALETIIQELCEYWRMFENAPFKDIRTVKGATFTADDLKNELSHIGVLDIFPELGELVDTGYQAILEVKQNADNLKTWDLMDYLESTLIFCFSSRFEFLNNLLEIQEGIHPKNENLANIFLGITSKPENLLPYLIDKSRYQDVLPTVPLERHRVRVTYNFSIDDETISEPTPVPQQLEKKTENCSECNDVRMEMNTVKDVLQNVQKQLKNMQQNSEQFETKLVASDNKTKNFEKQLEDERRKNNKHLESSRKTLISKNEQLEALKRRATALSNCQAENQTLKFKIAEHHLLEKQLNISNKDVTQARDQLSGQISELEIQLKSELKTVQHLKKEQTISCNLTNEITKLKDQIEREKLCSKQLEKEISQLRTEADEMNIVMTQSLEMENLQLRDATKKFETENASLLKTNQQLSIQNEEQKRLIQVLLEKQQTAPSSSDFPVPSTQMTDNEENSRQQLWKYQKIKDSFRDGIKLRKAEAMVKKLTSLNRDPGVHQMAHRELENFKKLTSHYLQAIEMNILKIKNNGSSDLEQLPEAPKFSDEFMRFYRNATGKQTLTSASFSSGNSRGTQSYGSSISTMPSTSSRGNVQHHSGSAVRGQSITPTGLSQVPMSPRKLFSQPNIVTASITSTELDDTECAICLDEMTNFKETIKCQCRRRFHLECATKWLNEKRECPTCRKLLLNPSDYPPLN | not soluble |
| MNRSDKWQQRVAQVAYRFNQQYQNQSLELPAEVQEMPIYREWISGILAGKIASPFWEMAQPQKNQHCLDIGCGVSFLIYPWRDWQAFFYGQDVSNVARDTLNSRGSQLNSKLFKGVELGAAHQLKYTLSYFDLAIATGFSCYFPLEYWTSVLQAVKRVLKPDGHFVFDILNAAHPQAEDWAVLETYLGAEVFLEPVTEWEKIINAAGAKVVGRQPGEFFDLYKLRLEHHHHHH | not soluble |
| MFGYRSNVPKVRLTTDRLVVRLVHDRDAWRLADYYAENRHFLKPWEPVRDESHCYPSGWQARLGMINEFHKQGSAFYFGLFDPDEKEIIGVANFSNVVRGSFHACYLGYSIGQKWQGKGLMFEALTAAIRYMQRTQHIHRIMANYMPHNKRSGDLLARLGFEKEGYAKDYLLIDGQWRDHVLTALTTPDWTPGR | not soluble |
| MMTADAGICRPFKTKPARTIFGRFPARTVCLCASAIWTAAKSRCGWTAGVPSSLPTLPHPANAIPPNTVCSETQPSGTRKAAKPFSALPMPTAIRSKLPAAPVKRGSLFEPPSRFFGRFFVSDGRFFVSDLFCSSASGRVRAA | not soluble |
| MGSDKIHHHHHHMIMRILVVGDFLKTSGMTRYIFNVIGRIHASDFQVDALSISGKDECKGQVKKMGWGFYCVQAANNNLLRHLVQSFIFFKKHAKDYDVIHFNESALWNFLPIIFAHLFGAKRIILNSHNTYFATEGSKKLYVVLEIMHRIGKWLVAHVVAQNIAVSEEAARWMFTRKTINRHEYKIIVNGIELEKFAYNKEQRFKIRKSLKINEDTFLFGNVGIFNARKNQLRLLEIFNELVKRNLDVKLVLVGDGPIKEAIVAKISELRLADKVVMTGLINNTNEYYQAMDGVIMPSLNEGLSTVLLEAQTSGLQFILSEGLPLGNHIDLLVHEVPLSESNRVWADVVEHNMNREKREVFGSIMQKKGFDVELSAKELYQTYLEER | not soluble |
| MANQKKDSLSTLFSEEVHGPFVTFLFNTHVAHQNVEKDSLVLKNFAKAAKTRFEKKFPEEKWSVFQEKIDALLADASFWRNGTASVSIILSPENTFVQRLDVPVDDQYYVDTIPYLLGLVKDKQFNYHYYLLALNRDSMKLYKVDHTTVTPVELPKDAPTDVVTALGDELTGGNLNFSTQGSSNGSKEGVAYHSINTKDKEVEIDWVNYYQAVDTFLKDQLDNPEKLPLYLYALPENQTLFKKIAKNPYYDCSISVAASPAQATIQDIRSASEKIAAELTEKETASYNKLLDRKFLDQFTDISPAAADGKISHLFIATSLFVTENNEMSSEEYDRRKLLNTIAYQVIQNGGQVFVLDQKAAPDEKSLAAILRY | not soluble |
| YQPNYFLSIPITNKKITAGIKVLQNSILRQDNRLTKAMVGDGSFHITLLVMQLLNEDEVNIGTDALLELKPFVEEILEGKHLTLPFHGIGTFQGQVGFVKLADGDHVSALLEIAETAKRTFQEKGILAGESRTFKPHLTFMKLSKAPMLWKKGVRKIEPGLYEQFIDHRFGEEILYQIDLCSMLKKKQSNGYYHCESSIVIGEKD | soluble |
| ESEILGLFQRWQAAHGQRSGKALEGVYAPRLDYYGRAQTRERTLSAKQAFFARHPDFEQRIVAAPQIVPGDQEGRYEVRFVKQVRLDGRLRNYPGLLLAERAGPGDTWRFVGESDEITRYAVDPRYTPLARGRFAGTEADFAWVVAHAPNSAALCDEYEDCRCDLWSADARVPPK | not soluble |
| MTDLTGILYIVATPIGNLQDITQRALETFAQVDLIAAEDTRHSGLLLSHYGIKKPFFALHDHNEQEKAHILVEKLKQGSNIALISDAGTPLISDPGFHLVRQCREAGIRVVPLPGACAAITALCASGIASDRFCFEGFLPAKSKARKDKLENIAEEDRTLIFYESTHRILDTLEDMQAVLGEERYIVLAREMTKTWETITGNTIKNLREWLLEDPNRTKGEMVLIVEGKPKSDNNDEISPQAVKALELIAEELPLKKAAAIVAELYGYKKNALYQFGLAHLEKLEHHHHHH | soluble |
| MGSDKIHHHHHHVTYGDNVKPINDALLTEFPKEKRYLVYDKKFVKNPEAWSAEYALPYRRLRFIRLAYLLATSKHLFIDNYIGEYSVAPIRQGTKRIQLWHAAGTLKKFGLTSSRSLMVPKHVLRRFKRVYQRYGDFIVPGEACAKQFMAPHDLHRTVFKTLGVPRTDYWFNEQHQTVKKQLSDIYVKPKRRILLYAPTYREYNGMEGQTVRQLEQLTDQGWTILVKLHPTVRSMFTHQKAHVHFVTDEYSINDYLLITDVLVTDYSSIPFESCLLGVPTVLYTPDIDTYRQIPGIIDSYPDPLPVTCTDQFEIMLNWINSDVSLQESRMAMEQFKTIWYTEQPGQATRRIVDHYYRKVR | not soluble |
